Reference: patent US20120058906A1 (published 2012)

Tests used:
[1] = molecular target: T1, rHuman P-Cadherin/Fc Chimera, CF (R&D Systems Cat#861-PC) (human, UniProt P22223 108-654); assay: MSD ECL multi-spot plate, antigen immobilized; Fab 200 nM; blank spot 588
T1 construct: Purchased Fc chimera; not shown: Fc portion of the purchased chimera

[2] = molecular target: T2, rHuman HGF R/c-MET/Fc Chimera, CF (R&D Systems Cat#358-MT/CF) (human, UniProt P08581 25-932); assay: as above
T2 construct: Purchased Fc chimera; also called HGF R/Fc; not shown: Fc portion of the purchased chimera

[3] = molecular target: T3, rHuman IGF-1 sR (IGF-1 sR), CF (R&D Systems Cat#391-GR) (human, UniProt P08069 31-932); assay: as above
T3 construct: Purchased soluble receptor; also called insulin-like growth factor-1 soluble receptor; IGF-R1

[4] = molecular target: T4, rHuman Notch-1/Fc Chimera, CF (R&D Systems Cat#3647-TK) (human, UniProt P46531 19-526); assay: as above
T4 construct: Purchased Fc chimera; not shown: Fc portion of the purchased chimera

[5] = molecular target: T5, rHuman EGF R/Fc Chimera, CF (R&D Systems Cat#344-ER) (human, UniProt P00533 25-645); assay: as above
T5 construct: Purchased Fc chimera; not shown: Fc portion of the purchased chimera

[6] = molecular target: T6, rHuman ErbB2/Fc Chimera, CF (R&D Systems Cat#1129-ER) (human, UniProt P04626 23-652); assay: as above
T6 construct: Purchased Fc chimera; also called HER2/neu; not shown: Fc portion of the purchased chimera

[7] = molecular target: T7, rHuman Erythropoietin R/Fc Chimera, CF (R&D Systems Cat#963-ER) (human, UniProt P19235 25-250); assay: as above
T7 construct: Purchased Fc chimera; also called EPO R/Fc; Epo R; not shown: Fc portion of the purchased chimera
T7 sequence: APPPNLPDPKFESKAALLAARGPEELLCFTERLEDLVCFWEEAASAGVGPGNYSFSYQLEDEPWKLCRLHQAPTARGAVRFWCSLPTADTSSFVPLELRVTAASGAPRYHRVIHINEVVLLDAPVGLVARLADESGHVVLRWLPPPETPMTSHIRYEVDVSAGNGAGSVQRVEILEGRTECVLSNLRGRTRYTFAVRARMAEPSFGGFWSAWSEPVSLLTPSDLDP

[8] = molecular target: T8, Recombinant Human DLL4 (R&D Systems Cat#1506-D4/CF) (human, UniProt Q9NR61 27-524); assay: as above
T8 construct: Purchased recombinant protein; also called delta-like protein 4

[9] = molecular target: T9, rHuman CD44/Fc Chimera, CF (R&D Systems Cat#3660-CD) (human, UniProt P16070 21-220); assay: as above
T9 construct: Purchased Fc chimera; not shown: Fc portion of the purchased chimera

[10] = molecular target: T1, rHuman P-Cadherin/Fc Chimera, CF (R&D …); assay: MSD ECL multi-spot plate, antigen immobilized; Fab 0.32 nM; blank spot 513
[11] = molecular target: T10, rHuman Notch-1/Fc Chimera, CF (R&D Systems Cat#3647-TK) (human, UniProt P46531 19-526); assay: ECL (MSD multi-spot), antigen on plate, Fab 10 nM
T10 construct: Bought Fc chimera; not shown: Fc of the bought chimera

[12] = molecular target: T11, rHuman IGF-1 sR (insulin-like growth factor-1 soluble receptor), CF (R&D Systems Cat#391-GR) (human, UniProt P08069 31-932); assay: ECL (MSD multi-spot), antigen on plate, Fab 10 nM
T11 construct: Bought soluble receptor; also called IGF-R1

[13] = molecular target: T12, rHuman HGF R/c-MET/Fc Chimera, CF (R&D Systems Cat#358-MT/CF) (human, UniProt P08581 25-932); assay: ECL (MSD multi-spot), antigen on plate, Fab 10 nM
T12 construct: Bought Fc chimera; also called HGF R/Fc; not shown: Fc of the bought chimera

[14] = molecular target: T13, rHuman Erythropoietin R/Fc Chimera, CF (R&D Systems Cat#963-ER) (human, UniProt P19235 25-250); assay: ECL (MSD multi-spot), antigen on plate, Fab 10 nM
T13 construct: Bought Fc chimera; also called EPO R/Fc; Epo R; not shown: Fc of the bought chimera
T13 sequence: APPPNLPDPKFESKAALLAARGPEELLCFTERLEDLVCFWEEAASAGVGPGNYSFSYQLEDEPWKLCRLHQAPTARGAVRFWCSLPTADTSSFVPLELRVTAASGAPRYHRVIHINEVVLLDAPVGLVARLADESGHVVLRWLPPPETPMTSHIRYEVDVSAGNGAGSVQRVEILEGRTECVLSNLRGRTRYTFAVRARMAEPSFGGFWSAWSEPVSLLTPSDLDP

[15] = molecular target: T14, rHuman ErbB2/Fc Chimera, CF (R&D Systems Cat#1129-ER) (human, UniProt P04626 23-652); assay: ECL (MSD multi-spot), antigen on plate, Fab 10 nM
T14 construct: Bought Fc chimera; also called HER2/neu; not shown: Fc of the bought chimera

[16] = molecular target: T15, rHuman CD44/Fc Chimera, CF (R&D Systems Cat#3660-CD) (human, UniProt P16070 21-220); assay: ECL (MSD multi-spot), antigen on plate, Fab 10 nM
T15 construct: Bought Fc chimera; not shown: Fc of the bought chimera

[17] = molecular target: T16, Recombinant Human DLL4 (R&D Systems Cat#1506-D4/CF) (human, UniProt Q9NR61 27-524); assay: ECL (MSD multi-spot), antigen on plate, Fab 10 nM
T16 construct: Bought recombinant protein; also called delta-like protein 4

[18] = molecular target: T17, rHuman P-Cadherin/Fc Chimera, CF (R&D Systems Cat#861-PC) (human, UniProt P22223 108-654); assay: ECL (MSD multi-spot), antigen on plate, Fab 10 nM
T17 construct: Bought Fc chimera; also called CDH3; not shown: Fc of the bought chimera

[19] = molecular target: T18, rHuman EGF R/Fc Chimera, CF (R&D Systems Cat#344-ER) (human, UniProt P00533 25-645); assay: ECL (MSD multi-spot), antigen on plate, Fab 10 nM
T18 construct: Bought Fc chimera; also called ErbB-1; not shown: Fc of the bought chimera
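Also: blank spot per well as comparator with Hit at signal to blank ratio of 4 or more.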

B1: Fab VH5-51_IGHD5-18*01>3_IGHJ4*01_G100K & V3-4_IGLJ1*01 (Fab, V domains shown)
VH: EVQLVQSGAEVKKPGESLKISCKGSGYSFTSYWIGWVRQMPGKGLEWMGIIYPGDSDTRYSPSFQGQVTISADKSISTAYLQWSSLKASDTAMYYCARRKYSYGYDYFDYWGQGTLVTVSS
VL: QTVVTQEPSFSVSPGGTVTLTCGLSSGSVSTSYYPSWYQQTPGQAPRTLIYSTNTRSSGVPDRFSGSILGNKAALTITGAQADDESDYYCVLYMGSGISYVFGTGTKVTVL
notes: It was expressed as a Fab: CH1 with tags from Plasmid A and lambda CL from Plasmid E; also called Fab No. 22
Work on B1 yielded an ECL signal [1] of 1130 ECL signal, an ECL signal [2] of 1430 ECL signal and an ECL signal [3] of 1320 ECL signal. The ECL signal [4] was 1250 ECL signal, the ECL signal [5] was 1370 ECL signal and the ECL signal [6] was 1470 ECL signal. It also gave an ECL signal [7] of 1230 ECL signal, an ECL signal [8] of 45400 ECL signal and an ECL signal [9] of 1160 ECL signal.

B2: Fab VH5-51_IGHD5-18*01>3_IGHJ4*01_G100R & V3-4_IGLJ1*01 (Fab, V domains shown)
VH: EVQLVQSGAEVKKPGESLKISCKGSGYSFTSYWIGWVRQMPGKGLEWMGIIYPGDSDTRYSPSFQGQVTISADKSISTAYLQWSSLKASDTAMYYCARRRYSYGYDYFDYWGQGTLVTVSS
VL: QTVVTQEPSFSVSPGGTVTLTCGLSSGSVSTSYYPSWYQQTPGQAPRTLIYSTNTRSSGVPDRFSGSILGNKAALTITGAQADDESDYYCVLYMGSGISYVFGTGTKVTVL
notes: It was expressed as a Fab: CH1 with tags from Plasmid A and lambda CL from Plasmid E; also called Fab No. 23
B2 showed an ECL signal [10] of 656 ECL signal.

B3: Fab VH1-46_IGHD6-6*01_IGHJ1*01_S102A_S103P_S104F & L6_IGKJ1*01_S30N (Fab, V domains shown)
VH: QVQLVQSGAEVKKPGASVKVSCKASGYTFTSYYMHWVRQAPGQGLEWMGIINPSGGSTSYAQKFQGRVTMTRDTSTSTVYMELSSLRSEDTAVYYCAREEYAPFSAEYFQHWGQGTLVTVSS
VL: EIVLTQSPATLSLSPGERATLSCRASQSVNSYLAWYQQKPGQAPRLLIYDASNRATGIPARFSGSGSGTDFTLTISSLEPEDFAVYYCQQRSNWPPWTFGQGTKVEIKR
notes: Fab
B3 gave an ECL signal [11] of 253 ECL signal, an ECL signal [12] of 233 ECL signal and an ECL signal [13] of 239 ECL signal. For the same binder, the ECL signal [14] was 420 ECL signal, the ECL signal [15] was 274 ECL signal and the ECL signal [16] was 286 ECL signal. The ECL signal [17] was 33400 ECL signal, the ECL signal [18] was 283 ECL signal and the ECL signal [19] was 245 ECL signal.
